B1: tripeptide Methionine-Alanine-Proline (Met-Ala-Pro) (peptide)
peptide: MAP
B2: tripeptide Isoleucine-Threonine-Proline (Ile-Thr-Pro) (peptide)
peptide: ITP
B3: tripeptide IPP (peptide)
peptide: IPP

Key:
[1] = target: angiotensin I converting enzyme (ACE); test: cell-based or functional assay
[2] = target: angiotensin I converting enzyme (ACE); test: cell-based or functional assay; remark: listed apart in the source

Binder | ACE inhibition (IC50 value), at-line ACE assay (cleavage of HHL) [1] [µM] | ACE inhibition (IC50 value), modified Matsui assay (cleavage of Hip-His-Leu) [1] [µM] | IC50 value in the Modified Matsui test (ACE inhibition) [2] [µM]
B1 | 3.8 | 0.4 | 0.5
B2 | 50 | 10 | 
B3 | 7.1 | 2 | 

— patent publication US20090131331A1 (DSM IP ASSETS B V, published 2009)
